Test results from US6861578B1, “Method for plant protection against insects or nematodes by transformation with a nucleic acid encoding equistatin” (Plant Research International B.V., priority 1997, dated 2005).

Key:
[1] = target: cathepsin D (Homo sapiens, UniProt P07339); assay: Incubation of equistatin with cathepsin D, reverse-phase HPLC (substrate test); type: biochemical; conditions: incubated in different molar concentrations and times
Description: In panel A the equistatin was incubated with cathepsin D in a final molar concentration of 2:1, and in panel B the equistatin was fragmented using 1% (w/w) β-trypsin. Identities of peaks were based on the N-terminal sequences.
(§1) Equistatin was isolated from sea anemone A. equina by a procedure that was described previously utilizing its inhibitory activity toward cysteine proteinase, papain (Lenarcic et al. (1997) J. Biol. Chem. 272: 13899). Besides cysteine proteinases, equistatin was screened for the inhibition of two other classes of proteinases, aspartic proteinases (cathepsin D) and serine proteinase (trypsin). […] 500 μg equistatin was incubated with 5 μg of β-trypsin in 0.5 ml of 0.1 M Tris/HCl buffer pH 8.0, for 40 min at 37° C. Reaction was stopped by the addition of trifluoroacetic acid. The 9-trypsin digest of equistatin was separated by high performance liquid chromatography (Milton Roy Co.) using a reverse phase Vydac C18 column equilibrated with 5% acetonicril containing 0.1% (v/v) trifluoroacetic acid. Elution was performed using a linear gradient of 80% (v/v) acetonitrile containing 0.1% (v/v) trifluoroacetic acid. Absorbance was monitored at 215 nm. Two major peaks were obtained on the reverse-phase. HPLC (FIG. 9B). The molecular weights, estimated by the SDS PAGE under non-reducing conditions, were about 7,000 and 14,000 (FIG. 10). […]

[2] = test system: trypsin; assay: Screen of equistatin against serine proteinase trypsin; limited proteolysis; type: biochemical; conditions: screened against cathepsin D and trypsin
Description: as §1, with “10). Determination of the N-termini of the both fragments allowed them to be located in the sequence of the equistatin molecule shown schematically in FIG. 11.” for “10).”

[3] = test system: Colorado potato beetle larval gut extracts (potato protease inhibitor-insensitive cysteine proteases); assay: General proteolytic activity of Colorado potato beetle larval gut extracts, azocasein; type: biochemical, Leptinotarsa decemlineata
Excerpt: Guts of final instar Colorado potato beetle larvae reared on methyl jasmonate induced plants were isolated and extracted essentially as described (Bolter and Jongsma, J. Insect Physiol. 41: 1071-1078). In these gut extracts the proteases that are sensitive to the protease inhibitors of potato are already complexed. The residual protease activity is composed of potato protease-inhibitor-insensitive proteases which were induced in response to the methyl jasmonate induced potato inhibitors. These proteases are the proteases that render the beetle larvae insensitive to protease inhibitor defense of the potato plant. Wle tested a broad range of different cysteisie protease inhibitors for activity specifically against these induced potato protease inhibitor-insensitive cysteine protesses. Nearly all of these inhibitors were purified at the Jozef Stefan Institute in Slovenia. Testing their potential against Colorado potato beetle was done using both general protein substrates (azocasein, table 2) as well as specific synthetic substrates (L-Arg-pNA, table 3; pGlu-Phe-Leu-pNA, table 4; Z-Phe-Arg-pNA, table 5; Z-Arg-Arg-pNA, table 6). In specific cases inhibitors were tested at two concentrations, eauimolar and in excess to the protease, in order to obtain an indication of the tightness of the complex. […] Importantly, this class of inhibitors was capable of inhibiting nearly all general cysteine protease activity. The equistatin peptide molecule and a functional derivative thereof were not very active against the aminopeptidase-like cysteine protease activity. […] The best combination of inhibitors for full toxicity against the Colorado potato beetle would therefore be a combination of equistatin or p41 invariant chain fragment and stefin-like inhibitors.

[4] = test system: thrips protease activity; assay: Protease activity of adult western flower thrips extract, FITC-hemoglobin; type: biochemical, Frankliniella occidentalis; design: inhibition of protease activity: concentration or dose not given beside the values
Description: (§2) Adult western flower thrips (Frankliniella occidentalis) and leafmirer flies (Liriomyza trifolii) adult were harvested from a culture maintained on chrysanthemum plants and complete thrips and flies were homogenized in extraction on buffer (200 mM β-alanine-HCl, pH 3.5) in a volume of 5 times the weight of the insects. The buffer pH was at the previously determined pH optimum of protease activity towards hemoglobin. Final instar Colorado potato beetle larvae maintained on potato plants as described in example 5 were checked for gut aspartic protease activity by preparing a total gut extract in pH 3 buffer which is optimal for Colorado potato beetle aspartic proteases (200 mM glycine, pH 3). Guts were homogenized in 100 μl buffer per gut. Third instar western corn rootworm larvae maintained on corn roots were used to remove the guts. Ten guts were homogenized in 100 μl water and spinned twice to remove insoluble material. Two types of buffers were used in the enzymatic assay. One with a pH presumably favoring cysteine proteases (50 mM MES, pH 6.5; 0.6 mg/ml L-cysteine) and one for detecting aspartic proteases (200 mM glycine, pH 3). Supernatants were stored at −20° C.
(§3) 2 μl gut extract was combined with 2 μl inhibitor (2 mM pepstatin in methanol, 4 mM E64 in water, 2 mg/ml recombinant equistatin in water. The concentration of the other proteinaceous inhibitors was not known exactly). Appropriate buffers were added to a final volume of 100 μl. After 15′ preincubation 20 μl substrate (5 mg/ml FITC-hemoglobin) was added and incubated for 30-45 min at 37 C.
(§4) Reaction was stopped by the addition of 100 μl 10% TCA. Tubes were centrifuged and 100 μl supernatant mixed with 100 μl 10 N NaOH was measured on a fluorimeter for the extent of hemoglobin hydrolysis. Measurements were done in duplicate on one (thrips, leafminer and western corn rootworm), or three (Colorado potato beetle) different gut extracts and varied by a maximum of +/−5%.

[5] = test system: western corn rootworm cysteine and aspartic protease activity; assay: Protease activity of western corn rootworm larval gut extract, FITC-hemoglobin; type: biochemical, Diabrotica virgifera; design: inhibition of protease activity: concentration or dose not given beside the values; conditions: for residual protease activity: recombinant equistatin; for inhibition of protease activity: western corn rootworm
Description: as §2, §3, §4

cathepsin D, sequence (P07339 65-412, species assumed): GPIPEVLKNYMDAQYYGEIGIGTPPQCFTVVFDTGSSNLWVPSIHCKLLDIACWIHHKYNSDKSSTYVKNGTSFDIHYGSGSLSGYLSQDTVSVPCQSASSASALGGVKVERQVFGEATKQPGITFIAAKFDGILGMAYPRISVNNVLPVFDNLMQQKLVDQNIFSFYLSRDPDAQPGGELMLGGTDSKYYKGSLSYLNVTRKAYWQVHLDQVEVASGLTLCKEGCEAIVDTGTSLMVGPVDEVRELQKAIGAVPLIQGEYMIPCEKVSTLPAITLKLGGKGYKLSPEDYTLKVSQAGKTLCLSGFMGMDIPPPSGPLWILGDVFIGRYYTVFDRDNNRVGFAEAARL

B1: equistatin: cysteine/aspartic protease inhibitor from sea anemone Actinia equina with three type I repeated thyroglobulin domains; purified or recombinant from E. coli (protein)
chain: SLTKCQQLQASANSGLIGTYVPQCKETGEFEEKQCWGSTGYCWCVDEDGKEILGTKIRGSPDCSRRKAALTLCQMMQAIIVNVPGWCGPPSCKADGSFDEVQCCASNGECYCVDKKGKELEGTRQQGRPTCERHLSECEEARIKAHSNSLRVEMFVPECLEDGSYNPVQCWPSTGYCWCVDEGGVKVPGSDVRFKRPTC
modifications: left off: large carriers; small tags and cut ends
notes: purified or recombinant from E. coli
degradation of equistatin by cathepsin D [1]: No degradation products were observed | inhibitory effect on trypsin (screen) [2]: observed only when it was reacting with cathepsin D | Residual activity in excess of inhibitor [3]: 10% | residual protease activity ([4]; thrips pH 3.5, equistatin purified from sea anemone): 5% | inhibition of protease activity ([4]; thrips, pH 3.5): 95% | residual protease activity ([5]; western corn rootworm pH 3): 2% | residual protease activity ([5]; western corn rootworm pH 6.5): 7% | inhibition of protease activity ([5]; pH 3): 98% | inhibition of protease activity ([5]; pH 6.5): 93%
